One substance from publication PMC5566955 can be followed below.

Experiment [1] addresses MacQ heterodimer consisting of an α-chain and a β-chain (wild-type, cleaved form) (Acidovorax sp. strain MR-S7). Kind of experiment: SEC; analytical gel filtration, Superose 6 10/300 GL, 50 mM sodium phosphate pH 8.0, 200 mM NaCl, 0.4 mL/min. A general note: In gel filtration, larger molecules generally elute earlier.
For experiment [2] the target is unchanged. Kind of experiment: crystal structure; wild-type MacQ, ligand-free and with the reaction products C10 and PAA; crystals at 20 °C from 100 mM Tris-HCl pH 7.5–8.5, 0.1–0.2 M calcium acetate, 14–18% PEG 3350.

As for “MacQ heterodimer consisting of an α-chain and a β-chain (wild-type, cleaved form) (complex)”, the stoichiometry N in experiment [1] and in experiment [2] was 2 each time.

Broadly, the stoichiometry N is a count of units in the complex or per binding partner.
